Experiment [1] concerns the target Puromycin-sensitive aminopeptidase, wild type, with C-terminal polyhistidine sequence (kinetic studies) (human) (UniProt P55786). Nature of the experiment: competitive inhibition of enzyme activity (Dixon plots); apparent Ki from inhibition of Ala-4MβNA cleavage at increasing peptide concentrations; 20 mM HEPES pH 7.0, 2 mM BME, 37°C; 20 μM (PSA^wt) or 100 μM (PSA^F433A) Ala-4MβNA; triplicate.

Experiment [2] concerns the target Puromycin-sensitive aminopeptidase F433A mutant, with C-terminal polyhistidine sequence (human) (UniProt P55786). The description is as above.

Puromycin-sensitive aminopeptidase F433A mutant, with C-terminal polyhistidine sequence (human), sequence (P55786 whole entry F433A): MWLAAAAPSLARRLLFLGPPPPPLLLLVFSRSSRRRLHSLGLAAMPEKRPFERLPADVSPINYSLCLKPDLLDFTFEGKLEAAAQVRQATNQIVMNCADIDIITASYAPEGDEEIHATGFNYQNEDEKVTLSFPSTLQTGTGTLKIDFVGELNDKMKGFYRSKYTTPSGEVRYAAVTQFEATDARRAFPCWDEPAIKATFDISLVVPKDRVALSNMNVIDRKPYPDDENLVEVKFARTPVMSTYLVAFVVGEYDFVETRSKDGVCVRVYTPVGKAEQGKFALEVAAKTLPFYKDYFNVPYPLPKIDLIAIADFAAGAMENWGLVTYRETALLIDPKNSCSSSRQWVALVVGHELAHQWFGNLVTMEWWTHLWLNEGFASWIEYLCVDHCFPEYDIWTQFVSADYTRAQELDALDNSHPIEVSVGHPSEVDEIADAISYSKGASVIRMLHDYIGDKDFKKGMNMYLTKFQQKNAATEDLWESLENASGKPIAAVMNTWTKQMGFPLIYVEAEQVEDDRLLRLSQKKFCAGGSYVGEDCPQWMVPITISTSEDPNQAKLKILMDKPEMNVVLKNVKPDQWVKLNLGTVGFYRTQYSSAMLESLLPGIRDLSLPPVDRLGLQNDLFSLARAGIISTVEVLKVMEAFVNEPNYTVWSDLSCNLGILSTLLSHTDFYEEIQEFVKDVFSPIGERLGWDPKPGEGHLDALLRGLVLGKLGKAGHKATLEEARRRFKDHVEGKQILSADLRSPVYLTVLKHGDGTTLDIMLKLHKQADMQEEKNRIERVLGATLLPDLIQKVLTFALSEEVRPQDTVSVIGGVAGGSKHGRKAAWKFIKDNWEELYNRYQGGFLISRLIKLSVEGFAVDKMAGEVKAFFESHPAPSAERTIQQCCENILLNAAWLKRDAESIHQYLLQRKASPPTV
Puromycin-sensitive aminopeptidase, wild type, with C-terminal polyhistidine sequence (kinetic studies) (human), sequence (P55786 whole entry): as the sequence (P55786 whole entry F433A) above, with A433F counted along it

Dynorphin A(1–17) (peptide): the Ki worked out at 440 nM in experiment [1] and 2600 nM in experiment [2].

The values above are taken from paper PMC10343166.
